Here are results for six molecules from US7875585 (dated 2011).

Sequences and labels used below:
B2: L-selectin on rat thoracic duct lymphocytes (receptor, UniProt P30836 39-372, looked up)
chain: WTYHYSERSMNWENARKFCKHNYTDLVAIQNKREIEYLEKTLPKNPTYYWIGIRKIGKTWTWVGTNKTLTKEAENWGTGEPNNKKSKEDCVEIYIKRERDSGKWNDDACHKRKAALCYTASCQPESCNRHGECVETINNNTCICDPGYYGPQCQYVIQCEPLKAPELGTMNCIHPLGDFSFQSQCAFNCSEGSELLGNAKTECGASGNWTYLEPICQVIQCMPLAAPDLGTMECSHPLANFSFTSACTFTCSEETDLIGERKTVCRSSGSWSSPSPICQKTKRSFSKIKEGDYNPLFIPVAVMVTAFSGLAFIIWLARRLKKGKKSQERMDDPY
notes: whole, on cells; also called rat L-selectin; TDL L-selectin

Assay [1] concerns the target L-selectin on human lymphocytes or neutrophils (human) (UniProt P14151). Put plainly: cell-based or functional assay.
For assay [2], the target named is L-selectin on lymphocytes (human or rat not given). As to the kind of experiment: cell-based or functional assay.
The target in assay [3] is L-selectin on rat thoracic duct lymphocytes (rat) (UniProt P30836). As to the kind of experiment: cell-based or functional assay.
The target in assay [4] is L-selectin on lymphocytes (human or rat not given). Put plainly: blot rolling assay, lymphocytes over blotted KG1a membrane protein, 2.3 dynes/cm^2.
Assay [5] shares this target. As to the kind of experiment: Stamper-Woodruff assay, equimolar amounts of KG1a CD44 and PSGL-1, 80 rpm.
Assay [6] shares this target. As to the kind of experiment: Stamper-Woodruff assay, lymphocytes on immunoprecipitate spotted on glass.
Assay [7] deals with PSGL-1 from KG1a cells (human) (UniProt Q14242). Put plainly: fixed KG1a cells treated with PL-1 (10 µg/ml), rat lymphocyte (L-selectin) rolling at 4.4 dynes/cm^2.
Assay [8] deals with PSGL-1 from HL60 cells (human) (UniProt Q14242). As to the kind of experiment: fixed HL60 cells treated with PL-1 (10 µg/ml), rat lymphocyte (L-selectin) rolling at 4.4 dynes/cm^2.
For assay [9], the target named is L-selectin on human lymphocytes or neutrophils (human) (UniProt P14151). As to the kind of experiment: Stamper-Woodruff assay, human lymphocytes treated with LAM1-3, on immunoprecipitated KG1a CD44.
Assay [10] deals with T1, human E-selectin on CHO-E cells (human, UniProt P16581 22-610).
T1 construct: whole, on cells; also called CD62E
T1 sequence (looked up): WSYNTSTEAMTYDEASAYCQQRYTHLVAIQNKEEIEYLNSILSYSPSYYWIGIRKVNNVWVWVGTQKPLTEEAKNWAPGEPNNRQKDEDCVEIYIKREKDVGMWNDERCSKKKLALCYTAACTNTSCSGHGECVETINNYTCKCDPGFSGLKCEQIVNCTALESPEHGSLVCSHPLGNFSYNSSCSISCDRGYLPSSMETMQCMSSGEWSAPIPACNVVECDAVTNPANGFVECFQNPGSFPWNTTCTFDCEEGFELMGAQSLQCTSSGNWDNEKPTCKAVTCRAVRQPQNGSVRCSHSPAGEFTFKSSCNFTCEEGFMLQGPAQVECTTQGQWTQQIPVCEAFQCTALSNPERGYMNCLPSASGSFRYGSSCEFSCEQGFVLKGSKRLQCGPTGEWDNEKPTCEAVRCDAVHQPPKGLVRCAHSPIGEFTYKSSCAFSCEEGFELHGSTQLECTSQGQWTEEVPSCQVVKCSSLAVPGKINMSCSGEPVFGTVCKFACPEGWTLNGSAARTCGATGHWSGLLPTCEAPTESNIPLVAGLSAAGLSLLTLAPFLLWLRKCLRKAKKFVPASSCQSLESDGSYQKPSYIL
Put plainly: blot rolling assay, CHO-E cells over blotted HL60 membrane protein. Here is the method:
The blot rolling assay was performed as previously described (Dimitroff et al., 2000). Briefly, CHO-E, CHO-P or CHO-Mock transfectants were isolated as described above, washed twice in HBSS and suspended at 10^7/ml in HBSS/10 mM HEPES/2mMCaCl_2 (H/H/Ca++)/10% glycerol. […] The blots were then placed in the parallel-plate flow chamber, and CHO transfectants (2×10^6/ml) were perfused into the chamber. After allowing the cells to come in contact with the blotting membrane, the flow rate was adjusted to exert a shear stress of 3.8 dynes/cm^2. The viscosity of 10% glycerol adhesion assay medium was considered in the calculation of shear stress values. The number of cells rolling on and between each immunostained banding region was quantified under 100× magnification within each field of view on the video monitor using molecular weight markers (Kaleidoscope Molecular Weight Markers, Bio-Rad Lab.; See Blue® from Novex, Inc.) as guides to help align and visualize the apparent molecular weights of the proteins of interest. A minimum of 3 experiments was performed and results were expressed as the mean±SD of cell rolling/field at 100× magnification. […]

The target of assay [11] is T2, CD34 immunoprecipitated from KG1a cells (human, UniProt P28906 32-385).
T2 construct: mature; also called KG1a CD34; CD34 (Molecular Control)
T2 sequence (looked up): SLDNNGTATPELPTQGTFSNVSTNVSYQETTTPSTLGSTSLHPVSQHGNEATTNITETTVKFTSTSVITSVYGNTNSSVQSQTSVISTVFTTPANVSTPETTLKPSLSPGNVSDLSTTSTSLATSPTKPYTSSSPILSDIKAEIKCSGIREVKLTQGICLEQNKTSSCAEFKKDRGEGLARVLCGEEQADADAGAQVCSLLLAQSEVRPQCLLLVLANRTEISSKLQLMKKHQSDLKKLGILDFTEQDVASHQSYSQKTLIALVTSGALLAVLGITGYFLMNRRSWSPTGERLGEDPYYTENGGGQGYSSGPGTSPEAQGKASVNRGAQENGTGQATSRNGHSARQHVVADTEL
Put plainly: Stamper-Woodruff assay, 80 rpm, rat thoracic duct lymphocytes. On the procedure: (§1) Lymphocytes (10^7/ml RPMI-1640 without NaBicarbonate/5'/oFBS) were overlayed onto these fixed immunoprecipitates and incubated on an orbital shaker at 80 rpm for 30 min. at 4° C. The number of adherent lymphocytes was quantified by light microscopy using an ocular grid under 100× magnification (a minimum of 5 fields/slide, 2 slides/experiment, and 3 separate experiments). Data were presented as the mean number of bound lymphocytes±standard deviation. KG1a CD34 and L-selectin control immunoprecipitates were also tested in this manner. To verify the dependence for sialic acid, glutaraldehyde-fixed spots were treated with *Vibrio cholerae* neuraminidase (0.1U/ml RPMI-1640 without NaBicarbonate/2% FBS for 1 hr at 37° C.). In addition, to verify that cellular adhesion was dependent on L-selectin, all assays included negative controls, in which lymphocytes were treated with PMA (50 ng/ml for 30 min at 37° C.) or functional blocking antibodies (anti-rat-L-selectin moAb HRL-1 or anti-human L-selectin moAb LAM1-3;10 µg/ml), or lymphocyte suspensions contained 5 mM EDTA.
(§2) [2]The average number of bound lymphocytes from 5 fields of view at 100x mag. from duplicate slides and a minimum of three experiments. […]

Assay [12] deals with B2. Described as above. On the procedure: as §1, §2

In turn, “hematopoietic cell E-selectin/L-selectin ligand (HCELL), the CD44 glycoform of KG1a cells (from UniProt P16070 21-742)” returned a L-selectin-mediated neutrophil rolling on KG1a cells against HL60 cells, parallel-plate flow chamber in [1] of 4 fold. In assay [2], this molecule displayed a L-selectin-mediated lymphocyte adherence to KG1a cells against HL60 cells at 80 rpm, Stamper-Woodruff assay of 10 fold and a frequency of rolling lymphocytes on KG1a cells against HL60 cells, parallel-plate flow chamber of less than 5 fold. Besides, in assay [3], the % Control Mean Lymphocyte Binding; KG1a Cells + mocarhagin (% of untreated control) amounted to 110, the % Control Mean Lymphocyte Binding; KG1a Cells +Neur. + DMSO (% of untreated control) was determined as 103, the % Control Mean Lymphocyte Binding; KG1a Cells +Neur. + Tunicamycin (15 µg/ml) (% of untreated control) amounted to 34.3 and the % Control Mean Lymphocyte Binding; KG1a Cells +OSGE (60 µg/ml) (% of untreated control) is 104. Moreover, in [3], the % Control Mean Lymphocyte Binding; KG1a Cells +neuraminidase (Neur.) (0.1 U/ml) (% of untreated control) came out at 0.3. For the same molecule, in assay [4], the fold L-selectin ligand activity compared to other bands is less than 6 fold. In assay [5], this molecule yielded a fold lymphocyte binding compared with PSGL-1 of less than 10 fold. Also, in assay [6], the bound cells/field (bound cells/field) is 362.
For the molecule anti-PSGL-1 monoclonal antibody PL-1, the values for the % Control Mean Lymphocyte Binding (% of untreated control) in assay [7] and in assay [8] were 105 and 62.5, respectively.
“anti-human L-selectin monoclonal antibody LAM1-3”: in assay [9], the bound cells/field left after the antibody (bound cells/field) was less than 10.

B1: PSGL-1 from HL60 cells (ligand, human, UniProt Q14242 42-412, looked up)
chain: QATEYEYLDYDFLPETEPPEMLRNSTDTTPLTGPGTPESTTVEPAARRSTGLDAGGAVTELTTELANMGNLSTDSAAMEIQTTQPAATEAQTTQPVPTEAQTTPLAATEAQTTRLTATEAQTTPLAATEAQTTPPAATEAQTTQPTGLEAQTTAPAAMEAQTTAPAAMEAQTTPPAAMEAQTTQTTAMEAQTTAPEATEAQTTQPTATEAQTTPLAAMEALSTEPSATEALSMEPTTKRGLFIPFSVSSVTHKGIPMAASNLSVNYPVGAPDHISVKQCLLAILILALVATIFFVCTVVLAVRLSRKGHMYPVRNYSPTEMVCISSLLPDGGEGPSATANGGLSKAKSPGLTPEPREDREGDDLTLHSFLP
modifications: HECA-452-reactive glycans
notes: mature; also called HL60 PSGL-1; PSGL-1/CLA
In the case of B1, the binding result in [10] is recorded as “binds”.
Turning to B2, the binding result in [11] is “no binding”.

B3: L-selectin immunoprecipitated from KG1a cells (receptor, human, UniProt P14151 39-372, looked up)
chain: WTYHYSEKPMNWQRARRFCRDNYTDLVAIQNKAEIEYLEKTLPFSRSYYWIGIRKIGGIWTWVGTNKSLTEEAENWGDGEPNNKKNKEDCVEIYIKRNKDAGKWNDDACHKLKAALCYTASCQPWSCSGHGECVEIINNYTCNCDVGYYGPQCQFVIQCEPLEAPELGTMDCTHPLGNFSFSSQCAFSCSEGTNLTGIEETTCGPFGNWSSPEPTCQVIQCEPLSAPDLGIMNCSHPLASFSFTSACTFICSEGTELIGKKKTICESSGIWSNPSPICQKLDKSFSMIKEGDYNPLFIPVAVMVTAFSGLAFIIWLARRLKKGKKSKRSMNDPY
notes: mature; also called L-selectin (Molecular Control)
For the molecule B3, the binding result in [12] is given as “no binding”.
